B1: Wnt3a: Wnt3a protein (R&D Systems), a secretory glycoprotein of the Wnt family (protein, UniProt P56704 19-352, looked up)
Protein Wnt-3a: SYPIWWSLAVGPQYSSLGSQPILCASIPGLVPKQLRFCRNYVEIMPSVAEGIKIGIQECQHQFRGRRWNCTTVHDSLAIFGPVLDKATRESAFVHAIASAGVAFAVTRSCAEGTAAICGCSSRHQGSPGKGWKWGGCSEDIEFGGMVSREFADARENRPDARSAMNRHNNEAGRQAIASHMHLKCKCHGLSGSCEVKTCWWSQPDFRAIGDFLKDKYDSASEMVVEKHRESRGWVETLRPRYTYFKVPTERDLVYYEASPNFCEPNPETGSFGTRDRTCNVSSHGIDGCDLLCCGRGHNARAERRREKCRCVFHWCCYVSCQECTRVYDVHTCK

Columns and labels:
Muller cells [1] = assay: Retinal organ culture, BrdU immunostaining of divided cells; type: cell-based, rat; conditions: 4 days
Procedure: (§1) The retina excluding the pigment epithelium was obtained from a 6-week-old adult DA rat (obtained from Shimizu Laboratory Supplies Co., Ltd. (Kyoto)) and a retinal organ culture was then carried out on a Millicell chamber filter. The retinal organ culture was conducted according to a method described in Methods 2002; 28: 387-395 and Brain Res 2002; 954: 286-293. The culture medium used was 50% Minimum Essential Medium +HEPES (Invitrogen Corporation)/25% Hank's solution (Invitrogen Corporation)/25% inactivated horse serum/200 μM L-glutamine/5.75 mg/ml glucose.
Wnt3a (100 ng/ml; R&D Systems) and BrdU (5ng/ml; SIGMA) were added to the culture medium everyday and a frozen specimen was then prepared after 4 days, followed by investigating the presence or absence of BrdU-positive divided cells by an immunological staining with a BrdU antibody.
Further, an inhibitor of glycogen synthase kinase 3β(GSK-3β), AR-A014418(J, Biol. Chem., Vol, 278, No. 46, p45937-45945, 2003), was added to a culture medium for the retina organ culture and the effect thereof was examined. […] In contrast, the number of BrdU-positive cells in control without the addition of AR-AO14418 was small.

Muller cells [2] = assay: Retinal organ culture, Rhodopsin expression of divided cells (differentiation into retinal nerve cells); type: cell-based, rat; conditions: 4 day culture with Wnt3a, then 1 week without Wnt3a
Procedure: as §1
Further, after 4 day culture with the addition of Wnt3a, the culture medium was changed, and the culture was then cultured for 1 week without Wnt3a.

Row | Molecule | number of BrdU-positive cells (Muller cells [1]; retina organ culture, 5 μM AR-A014418 together with BrdU, versus control without addition, FIG. 4) | expression of Rhodopsin (marker of the visual cells) in divided cells (Muller cells [2]) | BrdU-positive divided cells (immunological staining with a BrdU antibody) (Muller cells [1]; adult DA rat retinal organ culture, Wnt3a 100 ng/ml added everyday, compared with control without Wnt3a, FIG. 1) | ratio of the divided cells (number of divided cells in INL) (Muller cells [1]; adult DA rat retinal organ culture, Wnt3a 100 ng/ml, FIG. 2) | identity of divided cells (glutamine synthetase and BrdU immunological staining) (Muller cells [1]; adult DA rat retinal organ culture, Wnt3a 100 ng/ml, FIG. 3)
1 | COc1ccc(CNC(=O)Nc2ncc([N+](=O)[O-])s2)cc1 [AR-A014418, reference compound] | the number of BrdU-positive cells was increased |  |  |  | 
2 | B1 |  | a part of the divided cells express Rhodopsin | many BrdU-positive divided cells in the retinal inner nuclear layer (INL) | dramatic increase in the number of the divided cells in INL | most of these divided cells were identified as glutamine synthetase positive Muller cells
